Reference: article PMC6779431

Molecular target: RTP1S_C2-Strep (TM domain deletion mutant of RTP1S, 1-176 amino acids, with a Strep-tag at the C terminus) (mouse)
Experiment: SEC-MALS; OH-Pak SB-804HQ column, 100 μl of 0.3 mg/ml, 20 mM phosphate buffer pH 8.0, 100 mM NaCl

Substance: RTP1S_C2-Strep (TM domain deletion mutant of RTP1S, 1-176 amino acids, with a Strep-tag at the C terminus) (domain or fragment)
- stoichiometry N: 2
